Among the data in PMC4379586 are Kd values, retold here.

Data set [1] deals with MDM2 C-terminal RING domain (GST fusion) (human). In words: ITC. Particulars: ITC: 10 mM Hepes pH 7.2, 150 mM NaCl, temperature not stated; fluorescence titration (ex 280 nm, em 335 nm): buffer and temperature not stated.
Data set [2] has the same test system. Briefly: intrinsic protein fluorescence titration. Particulars: ITC: 10 mM Hepes pH 7.2, 150 mM NaCl, temperature not stated; fluorescence titration (ex 280 nm, em 335 nm): buffer and temperature not stated.

One may read the Kd as the equilibrium constant for the complex coming apart. Consider “XIAP IRES RNA (small, RNP core binding site)”, for which the dissociation constant (Kd) in data set [1] is 700 nM; in data set [2], 680 nM.
